Assay results published in patent US20230049152A1 (Genentech, published 2023).

Assays:
[1] = molecular target: T1, GST-FcgR3a.F158 (UniProt P08637 17-208, limits assumed); assay: ELISA, GST-FcgR3a.F158 captured by anti-GST antibody
T1 construct: Captured by anti-GST antibody on ELISA plate; also called FcgR3a.F158 protein; Fcgamma RIIIa F158; not shown: GST tag
Experimental: (§1) The binding of fucosylated and afucosylated variants of hu.Ab5.H13L1 and hu.Ab4.H12L3 to both FcgR3a proteins by ELISA was studied. Briefly, an anti-GST antibody was coated on Nunc Maxisorp plates. GST-FcgR3a.V158 and GST-FcgR3a.F158 were captured at 500 ng/mL. Plates were then washed and then serially diluted anti-CCR8 antibodies starting at 100 ug/mL were incubated on the plate for 1 hour at room temperature. Plates were washed and bound antibody was detected by a HRP-conjugated anti-human IgG secondary antibody. Absorbance at 450 nm was measured by a plate reader. The data were fitted using a 4-parameter logistic curve in Softmax Pro.

[2] = molecular target: T2, GST-FcgR3a.V158 (UniProt P08637 17-208, limits assumed); assay: ELISA, GST-FcgR3a.V158 captured by anti-GST antibody
T2 construct: Captured by anti-GST antibody on ELISA plate; also called FcgR3a.V158 protein; Fcgamma RIIIa V158; not shown: GST tag
T2 sequence (P08637 17-208 F176V limits assumed): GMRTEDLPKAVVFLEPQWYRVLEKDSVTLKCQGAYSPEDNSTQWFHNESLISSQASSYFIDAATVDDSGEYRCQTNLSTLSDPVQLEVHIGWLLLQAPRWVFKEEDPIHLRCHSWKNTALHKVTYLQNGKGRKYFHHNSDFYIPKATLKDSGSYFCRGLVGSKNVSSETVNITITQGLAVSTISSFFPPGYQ
Experimental: as §1

[3] = molecular target: T1, GST-FcgR3a.F158; assay: ELISA, GST-FcgR3a captured by anti-GST antibody
Experimental: as §1

[4] = molecular target: T2, GST-FcgR3a.V158; assay: ELISA, GST-FcgR3a captured by anti-GST antibody
Experimental: as §1

[5] = molecular target: T3, human CCR8 (human, UniProt P51685 1-355); assay: cell-based or functional assay
[6] = molecular target: T4, cyno CCR8 (cynomolgus monkey, UniProt O97665 1-356 (rhesus entry)); assay: whole-blood flow cytometry of cyno blood spiked ex vivo with a saturating concentration of the antibody, detected with labeled goat anti-human IgG on FoxP3+ T-reg cells; relative percentage of CCR8+ T-reg cells
T4 construct: also called cynomolgus monkey CCR8
T4 sequence (O97665 other isoform, or with tags, fused parts or gaps): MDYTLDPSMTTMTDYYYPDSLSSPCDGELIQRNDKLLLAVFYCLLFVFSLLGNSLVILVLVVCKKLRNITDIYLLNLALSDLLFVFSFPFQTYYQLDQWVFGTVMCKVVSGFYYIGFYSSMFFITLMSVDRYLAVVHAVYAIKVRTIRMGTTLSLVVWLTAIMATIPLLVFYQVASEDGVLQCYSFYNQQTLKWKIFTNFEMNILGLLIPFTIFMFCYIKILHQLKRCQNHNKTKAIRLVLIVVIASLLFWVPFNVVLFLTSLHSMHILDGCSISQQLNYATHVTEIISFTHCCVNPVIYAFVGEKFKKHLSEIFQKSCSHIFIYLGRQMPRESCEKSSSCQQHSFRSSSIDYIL
Experimental: Blood was collected from each of the animals before dosing (“Pre-study”), as well as on Day 1 at 0 hours (“Pre-dose”). Each of the animals were then administered a single dose of 10 mg/kg afucosylated anti-gD (Control Group), Afuc.hu.Ab5.H13L1 (Group 2) or Afuc.hu.Ab4.H12L3 (Group 3) via intravenous injection. Blood was then collected from the animals and subjected to the following treatment prior to flow cytometry analysis: (i) blood sample not spiked with either test CCR8 mAb (“unspiked”), (ii) blood sample further spiked with a saturating concentration of Afuc.hu.Ab5.H13L1, and (iii) blood sample further spiked with a saturating concentration of Afuc.hu.Ab4.H12L3. Each of the unspiked and spiked samples were subsequently treated with a labeled goat anti-human IgG antibody and analyzed by flow cytometry. […] Furthermore, flow cytometry of spiked blood also had very little effect on the total CCR8+T-reg cell count.
Anti-CCR8 antibodies Afuc.hu.Ab5.H13L1, Afuc.hu.Ab4.H12L3, and the control anti-gD were used for this study.

[7] = molecular target: T3, human CCR8; assay: cell-based or functional assay; remark: listed apart in the source
[8] = molecular target: T5, human CXCR4 (human, UniProt P61073 1-352); assay: flow cytometry, HEK293 transiently transfected with N-term FLAG-tagged human CXCR4, antibody at 5 ug/ml
T5 construct: whole, on cells; transiently expressed on HEK293 cells
T5 sequence (P61073 whole entry): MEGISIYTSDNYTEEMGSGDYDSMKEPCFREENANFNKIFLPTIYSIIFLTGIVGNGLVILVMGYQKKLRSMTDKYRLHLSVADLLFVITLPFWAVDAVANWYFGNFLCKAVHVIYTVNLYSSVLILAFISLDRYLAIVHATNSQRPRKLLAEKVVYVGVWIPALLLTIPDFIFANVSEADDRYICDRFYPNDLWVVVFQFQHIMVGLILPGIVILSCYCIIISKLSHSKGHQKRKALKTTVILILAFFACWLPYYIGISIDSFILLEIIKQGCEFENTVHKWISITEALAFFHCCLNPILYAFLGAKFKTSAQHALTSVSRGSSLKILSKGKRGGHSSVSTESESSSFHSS
From the text: (§2) FIGS. 4A-4F depicts the binding data of hu.Ab3.H1L1 (FIG. 4A), hu.Ab4.H1L1 (FIG. 4B), and hu.Ab5.H1L1 (FIG. 4C), as well as the commercial anti-CCR8 mAbs murine anti-human CCR8 mAb 433H (BD Biosciences) (FIG. 4D), and murine anti-human CCR8 mAb L263G8 (Biolegend) (FIG. 4E), and the humanized anti-human Yoshida anti-CCR8 mAb (FIG. 4F), to HEK293 cells that were transiently transfected with N-term FLAG-tagged plasmids encoding for human GPCRs (CCR2, CCR3, CCR4, CCR5, CCR8, CXCR4, ACKR2, and ACKR4), hCCR8 constructs, or with a mock construct using transIT X2 (reagent:DNA=3:1).
(§3) To confirm the selectivity to CCR8, the binding of hu.Ab3.H1L1, hu.Ab4.H1L1, and hu.Ab5.H1L1, as well as the Yoshida humanized anti-human CCR8, murine anti-human CCR8 mAb L263G8 (Biolegend, Commercial Ab) and murine anti-human CCR8 mAb 433H (BD Biosciences, Commercial Ab), were characterized by flow cytometry on HEK293 cells that were transiently transfected with plasmids encoding for FLAG-tagged other related human GPCRs (CCR2-5, CXCR4, ACKR2, and ACKR4). Cell surface expression of each GPCR was confirmed by staining with an anti-FLAG antibody control. […]

[9] = molecular target: T6, human CCR2 (human, UniProt P41597 1-374); assay: flow cytometry, HEK293 with N-term FLAG-tagged human CCR2
T6 construct: whole, on cells; transiently expressed on HEK293 cells
T6 sequence (P41597 whole entry): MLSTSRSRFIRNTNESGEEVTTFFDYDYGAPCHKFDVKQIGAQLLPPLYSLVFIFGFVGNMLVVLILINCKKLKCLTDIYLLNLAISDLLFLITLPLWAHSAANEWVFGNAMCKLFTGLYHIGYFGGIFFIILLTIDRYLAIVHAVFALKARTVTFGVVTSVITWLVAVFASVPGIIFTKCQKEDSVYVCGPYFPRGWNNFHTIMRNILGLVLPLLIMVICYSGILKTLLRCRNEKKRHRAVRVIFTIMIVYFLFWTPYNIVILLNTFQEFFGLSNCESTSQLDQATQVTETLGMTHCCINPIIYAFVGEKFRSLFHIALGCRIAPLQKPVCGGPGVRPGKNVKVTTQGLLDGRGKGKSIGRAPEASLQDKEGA
From the text: as §2
To confirm the selectivity to CCR8, the binding of hu.Ab3.H1L1, hu.Ab4.H1L1, and hu.Ab5.H1L1, as well as the Yoshida humanized anti-human CCR8, murine anti-human CCR8 mAb L263G8 (Biolegend, Commercial Ab) and murine anti-human CCR8 mAb 433H (BD Biosciences, Commercial Ab), were characterized by flow cytometry on HEK293 cells that were transiently transfected with plasmids encoding for FLAG-tagged other related human GPCRs (CCR2-5, CXCR4, ACKR2, and ACKR4). Cell surface expression of each GPCR was confirmed by staining with an anti-FLAG antibody control. In particular, HEK293 cells were transfected with N-term FLAG-tagged human CCR2, CCR3, CCR4, CCR5, CXCR4, ACKR2, ACKR4, hCCR8 constructs, or with a Mock construct using transIT X2 (reagent:DNA=3:1) for 24 hours, and surface stained with various anti-hCCR8 monoclonal antibodies at 5 ug/ml, or rabbit anti-Flag pAb (Sigma) followed by AF647-anti-hIgG or AF647-anti-RbIgG respectively. Antibodies hu.Ab4.H1L1, and hu.Ab5.H1L1, only stained the hCCR8-containing cells, confirming their specificity to hCCR8. […] Thus, the CCR8 selective hu.Ab4.H1L1 and hu.Ab5.H1L1 antibodies with the best ADCC activities were carried forward.

[10] = molecular target: T7, human ACKR4 (human, UniProt Q9NPB9 1-350); assay: flow cytometry, HEK293 transiently transfected with N-term FLAG-tagged human ACKR4, antibody at 5 ug/ml
T7 construct: whole, on cells; transiently expressed on HEK293 cells
T7 sequence (looked up): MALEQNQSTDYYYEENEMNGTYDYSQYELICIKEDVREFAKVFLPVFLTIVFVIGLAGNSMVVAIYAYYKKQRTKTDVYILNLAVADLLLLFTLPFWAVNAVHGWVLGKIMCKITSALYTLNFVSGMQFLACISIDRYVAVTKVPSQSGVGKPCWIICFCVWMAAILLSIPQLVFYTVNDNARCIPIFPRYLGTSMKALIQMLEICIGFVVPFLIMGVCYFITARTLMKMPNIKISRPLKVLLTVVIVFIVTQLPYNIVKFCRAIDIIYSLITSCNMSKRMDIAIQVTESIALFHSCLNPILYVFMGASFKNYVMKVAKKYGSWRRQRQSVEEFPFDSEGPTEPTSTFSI
From the text: as §2, §3

[11] = molecular target: T3, human CCR8; assay: cell-based or functional assay; remark: listed apart in the source
[12] = molecular target: T8, human CCR5 (human, UniProt P51681 1-352); assay: flow cytometry, HEK293 transiently transfected with N-term FLAG-tagged human CCR5, antibody at 5 ug/ml
T8 construct: whole, on cells; transiently expressed on HEK293 cells
T8 sequence (P51681 whole entry): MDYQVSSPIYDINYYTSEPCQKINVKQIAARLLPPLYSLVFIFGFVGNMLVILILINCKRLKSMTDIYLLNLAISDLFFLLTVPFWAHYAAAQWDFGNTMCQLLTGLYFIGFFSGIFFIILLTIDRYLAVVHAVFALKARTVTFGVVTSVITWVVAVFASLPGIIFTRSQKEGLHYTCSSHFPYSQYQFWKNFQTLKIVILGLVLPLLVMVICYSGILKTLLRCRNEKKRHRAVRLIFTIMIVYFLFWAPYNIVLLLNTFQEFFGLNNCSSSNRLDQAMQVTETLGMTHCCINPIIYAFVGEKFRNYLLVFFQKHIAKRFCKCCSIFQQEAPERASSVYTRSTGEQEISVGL
From the text: as §2, §3

[13] = molecular target: T4, cyno CCR8; assay: flow cytometry on human and cyno CCR8 CHO cells
[14] = molecular target: T3, human CCR8; assay: flow cytometry, 2 ug/mL mAb, Treg cells of human colorectal dissociated tumor cells
Experimental: The mAbs were evaluated for binding to regulatory T cells (Treg cells or Tregs) by Fluorescence-Activated Cell Sorting (FACS) flow cytometry. Human colorectal dissociated tumor cells (DTC) (Discovery Life Sciences) were thawed according to vendor's protocol. Cells were surface stained with eFluor 780-conjugated Fixable Viability Dye (ThermoFisher Scientific) and 2 ug/mL mAb specific for CCR8, OX40 (positive control), Herceptin (negative control), or anti-hIgG (negative control) for 20 min at 4° C. followed by secondary detection with AF647-conjugated AffiniPure F(ab′)2 Fragment Goat anti-Human IgG, Fcg fragment-specific (Jackson ImmunoResearch) for 10 min at 4° C. Cells were then intracellularly stained using the eBioscience Foxp3/Transcription Factor Staining Buffer Set (ThermoFisher Scientific) according to the manufacturer's protocol. […] Shown in FIG. 1 are mean fluorescent intensity (MFI) values for CD8 T cells (defined as CD45+CD14−CD3+CD8+CD4−) (circles, ◯), conventional CD4 T cells (defined as CD45+CD14−CD3+CD8−CD4+FOXP3−) (squares, □), and Treg cells (defined as CD45+CD14−CD3+CD8−CD4+FOXP3+) (triangles, ▴). Three of the five CCR8 mAb clones specifically stained Treg cells and not conventional CD4 or CD8 T cells and were ranked according to CCR8 MFI, greater than 500 MFI: hu.Ab4.H1L1>hu.Ab5.H1L1>hu.Ab3.H1L1. Upon confirmation that these three CCR8 mAb clones, namely, hu.Ab3.H1L1, hu.Ab4.H1L1, and hu.Ab5.H1L1, also retained human-cyno cross-reactivity (differences less than 5-fold on human and cyno CCR8 CHO cells), these antibodies carried forward for further exploration.

[15] = molecular target: T9, human CCR3 (human, UniProt P51677 1-355); assay: flow cytometry, HEK293 transiently transfected with N-term FLAG-tagged human CCR3, antibody at 5 ug/ml
T9 construct: whole, on cells; transiently expressed on HEK293 cells
T9 sequence (looked up): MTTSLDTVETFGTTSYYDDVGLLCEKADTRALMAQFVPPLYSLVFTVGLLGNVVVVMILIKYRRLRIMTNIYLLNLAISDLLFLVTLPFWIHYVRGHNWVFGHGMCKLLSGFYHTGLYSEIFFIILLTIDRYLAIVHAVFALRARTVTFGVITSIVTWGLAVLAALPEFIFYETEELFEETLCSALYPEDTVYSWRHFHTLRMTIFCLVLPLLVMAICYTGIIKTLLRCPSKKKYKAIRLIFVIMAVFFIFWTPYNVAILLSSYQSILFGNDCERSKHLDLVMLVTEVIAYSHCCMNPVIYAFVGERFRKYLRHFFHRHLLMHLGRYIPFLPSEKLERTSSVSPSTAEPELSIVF
From the text: as §2, §3

T1 sequence (P08637 17-208 limits assumed): as the sequence (P08637 17-208 F176V limits assumed) above, with V160F counted along it

B1: Afuc.hu.Ab4.H12L3 (antibody, human IgG1, kappa)
heavy: not shown
light: DYQMTQSPSSLSASVGDRVTITCQASQSISSYLSWYQQKPGKAPKLLIYKASTLASGVPSRFSGSGSGTDFTLTISSLQPEDFATYYCQQGYTSSNIDNIFGGGTKVEIKRTVAAPSVFIFPPSDEQLKSGTASVVCLLNNFYPREAKVQWKVDNALQSGNSQESVTEQDSKDSTYSLSSTLTLSKADYEKHKVYACEVTHQGLSSPVTKSFNRGEC
modifications: afucosylated Fc N-glycan at position Asn299; between about 80% to about 95% afucosylation
notes: also called Afuc.Ab4.H12L3; afucosylated hu.Ab4.H12L3
[1]
  EC50: 0.08 µg/mL
[2]
  EC50: 0.033 µg/mL
[3]
  fold increase in binding potency versus fucosylated counterpart: ~10 fold
[4]
  fold increase in binding potency versus fucosylated counterpart: ~10 fold
[5]
  ADCP EC50, macrophages HR/FF (FIG. 14A): 0.025 nM
  ADCP EC50, macrophages HR/FF (FIG. 14E): 0.035 nM
  ADCP EC50, macrophages HR/VF (FIG. 14C): 0.017 nM
  ADCP EC50, macrophages RR/FF (FIG. 14B): 0.12 nM
  ADCP EC50, macrophages RR/VF (FIG. 14D): 0.079 nM
[6]
  binding result: binds
[7]
  ADCC EC50, NK-92 F158 cells (FIG. 11A): 0.006 nM
  ADCC EC50, NK-92 F158 cells (FIG. 11C): 0.006 nM
  ADCC EC50, NK-92 V158 cells (FIG. 11B): 0.011 nM

B2: hu.Ab3.H1L1 (antibody, human IgG1, kappa, V domains shown)
VH: EQQLVESGGGLVQPGGSLRLSCAVSGFSLSSYAMSWVRQAPGKGLEWIGVISASGRIIYATWAKGRFTISKDSAKTSVYLQMNSLRDEDTAVYFCARGVPSYSLVMSDWGPGTTVTVSS
VL: EPVMTQSPATLSVSPGERATLSCQASQSISNALAWYQQKPGQPPRLLIYEVSKVASGVPARFSGSGSGTEFTLTISSLQSEDFAVYYCQSAYYGNSYVWGAFGQGTKVEIKR
notes: humanized, human IgG1
[8]
  binding result: binds
[9]
  binding result: no binding (tested: 5 ug/ml)
[10]
  binding result: binds
[11]
  ADCC EC50, NK-92_F158 effector cells, calcein release: 0.02 nM
[12]
  binding result: binds
[13]
  binding result: binds
[14]
  MFI: > 500 MFI
[15]
  binding result: binds
